Experimental data: PMC9082959, “Mechanism of Assembly of the Non-Covalent Spectrin Tetramerization Domain from Intrinsically Disordered Partners” (Journal of molecular biology, 2013)

Columns and labels:
Assay in all cases: ITC; β16β17 at 25–50 μM in the cell titrated with 15–20 injections to 2–2.5 eq of α0α1; one-site binding model; PBS (50 mM sodium phosphate, 150 mM NaCl, pH 7.04), 25 °C; mutants only against the wild-type partner
Conditions in all cases: both partners purified
β16β17 K46G = target: T1, β16β17 K46G (human, UniProt P11277 1898-2083, K2049G)
T1 construct: erythrocyte β-spectrin, human, residues 1898-2083 (β16β17); mutant of m2; also called K2049G; source: E. coli C41(DE3), purified (Ni2+ agarose, thrombin cleavage, gel filtration)
T1 sequence (looked up): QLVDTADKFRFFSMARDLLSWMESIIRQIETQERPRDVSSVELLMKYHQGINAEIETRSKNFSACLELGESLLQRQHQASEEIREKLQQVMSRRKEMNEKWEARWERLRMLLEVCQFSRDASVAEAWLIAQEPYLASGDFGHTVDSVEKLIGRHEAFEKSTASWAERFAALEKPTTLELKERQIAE

β16β17 S16G = target: T2, β16β17 S16G (human, UniProt P11277 1898-2083, S2019G)
T2 construct: erythrocyte β-spectrin, human, residues 1898-2083 (β16β17); mutant of m2; also called S2019G; source: E. coli C41(DE3), purified (Ni2+ agarose, thrombin cleavage, gel filtration)
T2 sequence (looked up): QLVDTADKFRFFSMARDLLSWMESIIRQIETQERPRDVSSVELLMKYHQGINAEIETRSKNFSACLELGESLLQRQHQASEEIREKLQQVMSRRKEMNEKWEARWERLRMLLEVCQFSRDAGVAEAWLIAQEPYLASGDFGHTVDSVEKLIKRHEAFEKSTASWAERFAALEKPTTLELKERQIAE

β16β17 A20G = target: T3, β16β17 A20G (human, UniProt P11277 1898-2083, A2023G)
T3 construct: erythrocyte β-spectrin, human, residues 1898-2083 (β16β17); mutant of m2; also called A2023G; source: E. coli C41(DE3), purified (Ni2+ agarose, thrombin cleavage, gel filtration)
T3 sequence (looked up): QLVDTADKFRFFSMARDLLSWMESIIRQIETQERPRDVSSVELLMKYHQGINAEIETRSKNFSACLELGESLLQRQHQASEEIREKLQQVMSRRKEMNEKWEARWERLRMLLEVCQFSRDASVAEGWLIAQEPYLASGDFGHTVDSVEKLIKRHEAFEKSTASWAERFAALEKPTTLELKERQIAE

β16β17 K67A = target: T4, β16β17 K67A (human, UniProt P11277 1898-2083, K2070A)
T4 construct: erythrocyte β-spectrin, human, residues 1898-2083 (β16β17); mutant of m2; also called K2070A; source: E. coli C41(DE3), purified (Ni2+ agarose, thrombin cleavage, gel filtration)
T4 sequence (looked up): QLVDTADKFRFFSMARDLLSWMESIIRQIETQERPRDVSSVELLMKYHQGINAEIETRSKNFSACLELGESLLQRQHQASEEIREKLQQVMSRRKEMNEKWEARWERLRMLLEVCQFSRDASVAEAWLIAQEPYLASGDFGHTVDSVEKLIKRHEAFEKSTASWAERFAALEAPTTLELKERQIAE

β16β17 D39A = target: T5, β16β17 D39A (human, UniProt P11277 1898-2083, D2042A)
T5 construct: erythrocyte β-spectrin, human, residues 1898-2083 (β16β17); mutant of m2; also called D2042A; source: E. coli C41(DE3), purified (Ni2+ agarose, thrombin cleavage, gel filtration)
T5 sequence (looked up): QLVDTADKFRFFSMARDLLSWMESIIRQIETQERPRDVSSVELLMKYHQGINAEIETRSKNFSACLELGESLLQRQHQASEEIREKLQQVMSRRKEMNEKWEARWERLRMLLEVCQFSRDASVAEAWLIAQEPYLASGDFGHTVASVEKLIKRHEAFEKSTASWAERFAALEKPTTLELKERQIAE

β16β17 R13G = target: T6, β16β17 R13G (human, UniProt P11277 1898-2083, R2016G)
T6 construct: erythrocyte β-spectrin, human, residues 1898-2083 (β16β17); mutant of m2; also called R2016G; source: E. coli C41(DE3), purified (Ni2+ agarose, thrombin cleavage, gel filtration)
T6 sequence (looked up): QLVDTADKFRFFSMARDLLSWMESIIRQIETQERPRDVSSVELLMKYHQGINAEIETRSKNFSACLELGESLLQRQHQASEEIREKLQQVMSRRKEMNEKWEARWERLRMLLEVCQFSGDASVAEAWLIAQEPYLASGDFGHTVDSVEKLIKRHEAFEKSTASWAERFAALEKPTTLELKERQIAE

Ka (β16β17 K46G): 230000 M⁻¹
Ka (β16β17 S16G): 360000 M⁻¹
Ka (β16β17 A20G): 530000 M⁻¹
Ka (β16β17 K67A): 500000 M⁻¹
Ka (β16β17 D39A): 470000 M⁻¹
Ka (β16β17 R13G): 71000 M⁻¹
B1: α0α1 (erythrocyte α-spectrin residues 2–163), wild type (domain or fragment, human, UniProt P02549 2-163, looked up)
chain: EQFPKETVVESSGPKVLETAEEIQERRQEVLTRYQSFKERVAERGQKLEDSYHLQVFKRDADDLGKWIMEKVNILTDKSYEDPTNIQGKYQKHQSLEAEVQTKSRLMSELEKTREERFTMGHSAHEETKAHIEELRHLWDLLLELTLEKGDQLLRALKFQQY
notes: synthetic gene (GenScript) in a modified pRSETA plasmid; also called α1α0; source: E. coli C41(DE3), purified (Ni2+ agarose, thrombin cleavage, gel filtration)
